In paper PMC5595889 one finds quantity recovered relative to importin α1 data, which are given here for 1 substance.

The target of this assay is GST-tagged importin α7 lacking the IBB (human). As to the kind of experiment: pull-down.

The substance “influenza A virus (H1N1 strain A/WSN/33) monomeric nucleoprotein (from UniProt P15682 1-498) (natural protein)” registered a quantity recovered relative to importin α1 of 2 fold.
